According to patent US20260217847A1:

What was measured:
[1] = target: TfR1 protein stably expressed on CHO-K1-TfR1 cells (UniProt P02786); experiment: cell-based or functional assay
[2] = target: TfR1 on human erythroleukemia TF-1 cells (human) (UniProt P02786); experiment: cell-based or functional assay
Sequence of TfR1 on human erythroleukemia TF-1 cells (human) (P02786 whole entry): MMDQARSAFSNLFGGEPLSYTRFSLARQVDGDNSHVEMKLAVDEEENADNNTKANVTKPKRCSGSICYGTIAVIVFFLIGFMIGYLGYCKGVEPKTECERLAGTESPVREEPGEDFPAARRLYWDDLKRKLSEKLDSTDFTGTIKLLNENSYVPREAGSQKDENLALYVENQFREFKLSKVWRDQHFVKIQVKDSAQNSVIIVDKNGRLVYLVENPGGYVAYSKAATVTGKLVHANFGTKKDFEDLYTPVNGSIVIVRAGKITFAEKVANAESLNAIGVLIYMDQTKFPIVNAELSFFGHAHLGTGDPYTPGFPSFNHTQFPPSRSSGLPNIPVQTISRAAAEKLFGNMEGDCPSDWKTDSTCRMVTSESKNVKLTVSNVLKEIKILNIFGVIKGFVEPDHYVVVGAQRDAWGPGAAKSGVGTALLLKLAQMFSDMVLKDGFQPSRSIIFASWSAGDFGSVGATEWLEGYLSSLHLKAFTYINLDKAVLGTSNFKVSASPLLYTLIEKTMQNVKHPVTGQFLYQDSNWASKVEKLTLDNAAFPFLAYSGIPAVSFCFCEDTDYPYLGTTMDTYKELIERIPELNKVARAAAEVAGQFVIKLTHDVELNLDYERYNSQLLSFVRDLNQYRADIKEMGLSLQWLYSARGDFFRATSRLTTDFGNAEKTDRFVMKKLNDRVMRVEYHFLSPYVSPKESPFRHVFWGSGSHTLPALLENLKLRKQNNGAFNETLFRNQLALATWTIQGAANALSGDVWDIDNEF

Sequence of TfR1 protein stably expressed on CHO-K1-TfR1 cells (P02786 whole entry): as above
Sequence of Tab4, pabinafusp alfa targeting humanized TfR1 (antibody) (VH): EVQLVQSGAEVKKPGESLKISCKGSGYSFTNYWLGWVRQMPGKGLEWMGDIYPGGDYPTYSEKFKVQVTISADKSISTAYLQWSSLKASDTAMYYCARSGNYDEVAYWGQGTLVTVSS
Sequence of Tab4, pabinafusp alfa targeting humanized TfR1 (antibody) (VL): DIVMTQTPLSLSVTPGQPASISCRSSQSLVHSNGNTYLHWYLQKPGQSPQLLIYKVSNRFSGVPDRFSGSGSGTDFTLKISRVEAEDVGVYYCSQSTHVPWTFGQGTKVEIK

CHO-K1-TfR1 internalization, fold (MFI at 37° C. to MFI at 4° C.) [1] [fold] | CHO-K1-TfR1 internalization, pHrodo label, 4° C. MFI (background value) [1] [MFI] | CHO-K1-TfR1 internalization, pHrodo label, 37° C. MFI [1] [MFI] | TF-1 cell internalization, fold (MFI at 37° C. to MFI at 4° C.) [2] [fold] | TF-1 cell internalization, pHrodo label, 4° C. MFI (background value) [2] [MFI] | TF-1 cell internalization, pHrodo label, 37° C. MFI [2] [MFI] | Substance
1.53 | 464 | 711 | 1.01 | 471 | 476 | hIgG isotype control (antibody)
2.36 | 520 | 1230 | 1.83 | 712 | 1300 | Tab4, pabinafusp alfa targeting humanized TfR1 (antibody)
